Among the data in PMC3194004 are stoichiometry N values, retold here.

Where two headings read alike, the source gives them in different places.

Assay [1] concerns the target HIV-1 full-length wild-type capsid protein (CA), residues 1-231 (HIV-1) (UniProt P03347). Description: dynamic light scattering.
Assay [2] has the same target. Description: dynamic light scattering. This is another data set of the same source.

Consider “HIV-1 full-length wild-type capsid protein (CA), residues 1-231 (from UniProt P03347 133-363) (natural protein)”, for which the stoichiometry N in assay [1] and in assay [2] was 2 in each case.
